Laboratory results taken from PMC12808120.

What was measured:
[1] = molecular target: IGF2BP3 (recombinant) (UniProt O00425); experiment: filter binding; conditions: FBA/EMSA: 10 mM Tris-Cl pH 7.5, 50 mM KCl, 1 mM EDTA, 0.05% Triton X, 5% glycerol, 1 mM DTT, 37 C 20 min, pull-down: lysate mixed 1:1 with 2x TENT (100 mM Tris …)
[2] = molecular target: IGF2BP3 (recombinant) (UniProt O00425); experiment: EMSA; conditions: no binding up to 100 nM; Kd >>100 nM; FBA/EMSA: 10 mM Tris-Cl pH 7.5, 50 mM KCl, 1 mM EDTA, 0.05% Triton X, 5% glycerol, 1 mM DTT, 37 C 20 min; pull-down: lysate mixed 1:1 with 2x TENT (100 mM Tris …)

Sequence of IGF2BP3 (recombinant) (O00425 whole entry): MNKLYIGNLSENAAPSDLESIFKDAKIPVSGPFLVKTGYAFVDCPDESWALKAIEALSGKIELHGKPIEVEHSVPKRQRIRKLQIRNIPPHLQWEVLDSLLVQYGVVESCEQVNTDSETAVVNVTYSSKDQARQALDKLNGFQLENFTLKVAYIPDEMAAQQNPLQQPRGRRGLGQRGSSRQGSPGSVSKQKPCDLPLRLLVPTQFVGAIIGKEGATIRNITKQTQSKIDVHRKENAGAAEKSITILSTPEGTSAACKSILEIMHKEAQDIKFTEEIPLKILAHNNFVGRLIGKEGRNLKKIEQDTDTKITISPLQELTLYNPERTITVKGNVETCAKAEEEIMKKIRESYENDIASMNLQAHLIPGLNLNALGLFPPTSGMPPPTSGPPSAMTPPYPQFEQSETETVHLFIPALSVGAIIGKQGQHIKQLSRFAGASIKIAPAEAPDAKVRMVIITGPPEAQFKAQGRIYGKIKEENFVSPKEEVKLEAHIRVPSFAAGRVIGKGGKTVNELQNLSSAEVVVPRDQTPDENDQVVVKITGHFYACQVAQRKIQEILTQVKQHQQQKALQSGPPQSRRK

Substance	Kd ([1]; no binding up to 100 nM, Kd >>100 nM) [nM]	Kd [2] [nM]	Kd [1] [nM]
UAAUAAUAAUAAUAAUAAUAAUAAUAAUAAUAAUAAUAAUAAUAAUAAUAAUAAUAAUAA [(UAA)20 RNA]	> 100	> 100	
FMR1-5'UTR RNA with 16 CGG repeats (FMR1-16CGG)			3.15
